Reference: doi:10.1101/461806 (bioRxiv, 2018)

How the values were obtained:
[1] = molecular target: T1, Cul3NΔ22 (human Cul3 N-terminal domain, residues 23-388, I342R L346D) (human, UniProt Q13618 23-388, I342R | L346D); assay: ITC
[2] = molecular target: Cul3N (human Cul3 N-terminal domain, residues 1-388, I342R L346D) (human, UniProt Q13618 1-388, I342R | L346D); assay: ITC
[3] = molecular target: T1, Cul3NΔ22 (human Cul3 N-terminal domain, …); assay: SEC-MALS
SEC-MALS = molecular target: the molecule itself; assay: SEC-MALS

T1 sequence (Q13618 23-388 I342R/L346D): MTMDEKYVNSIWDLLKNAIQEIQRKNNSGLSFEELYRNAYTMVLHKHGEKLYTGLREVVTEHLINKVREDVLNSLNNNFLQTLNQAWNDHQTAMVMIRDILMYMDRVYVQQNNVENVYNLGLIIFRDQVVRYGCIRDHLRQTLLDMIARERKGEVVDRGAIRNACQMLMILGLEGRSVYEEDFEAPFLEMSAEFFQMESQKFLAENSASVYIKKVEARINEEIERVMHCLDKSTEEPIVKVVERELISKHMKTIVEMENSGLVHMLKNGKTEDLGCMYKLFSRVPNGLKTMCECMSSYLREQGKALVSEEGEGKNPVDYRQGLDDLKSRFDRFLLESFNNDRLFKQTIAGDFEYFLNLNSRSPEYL
Sequence of Cul3N (human Cul3 N-terminal domain, residues 1-388, I342R L346D) (Q13618 1-388 I342R/L346D): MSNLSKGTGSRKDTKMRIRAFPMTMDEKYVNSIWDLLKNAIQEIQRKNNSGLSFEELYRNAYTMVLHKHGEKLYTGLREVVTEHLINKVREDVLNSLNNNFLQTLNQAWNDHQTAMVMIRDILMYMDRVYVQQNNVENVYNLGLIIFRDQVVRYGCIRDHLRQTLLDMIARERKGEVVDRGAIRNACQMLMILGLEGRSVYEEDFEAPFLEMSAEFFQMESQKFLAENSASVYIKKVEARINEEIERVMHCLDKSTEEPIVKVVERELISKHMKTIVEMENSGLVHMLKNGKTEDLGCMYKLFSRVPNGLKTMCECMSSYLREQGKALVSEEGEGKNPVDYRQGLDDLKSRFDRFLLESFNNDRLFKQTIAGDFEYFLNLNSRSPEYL

| Binder | dH [1] [kJ/mol] | Kd [1] [nM] | stoichiometry N [1] | Kd [2] [nM] | stoichiometry N [2] | stoichiometry N [3] | stoichiometry N (SEC-MALS) |
| --- | --- | --- | --- | --- | --- | --- | --- |
| KLHL3-BB (human KLHL3 BTB-BACK, residues 24-276) (domain or fragment) RTITVNPAHMGKAFKVMNELRSKQLLCDVMIVAEDVEIEAHRVVLAACSPYFCAMFTGDMSESKAKKIEIKDVDGQTLSKLIDYIYTAEIEVTEENVQVLLPAASLLQLMDVRQNCCDFLQSQLHPTNCLGIRAFADVHTCTDLLQQANAYAEQHFPEVMLGEEFLSLSLDQVCSLISSDKLTVSSEEKVFEAVISWINYEKETRLEHMAKLMEHVRLPLLPRDYLVQTVEEEALIKNNNTCKDFLIEAMKYH | -79.1 | – | – | – | – | – | – |
| A55BB (A55 BTB-BACK domain, residues 1-250) (domain or fragment) MNNSSELIAVINGFRNSGRFCDISIVINDERINAHKLILSGASEYFSILFSNNFIDSNEYEVNLSHLDYQSVNDLIDYIYGIPLSLTNDNVKYILSTADFLQIGSAITECENYILKNLCSKNCIDFYIYADKYNNKKIESASFNTILQNILRLINDENFKYLTEESMIKILSDDMLNIKNEDFAPLILIKWLESTQQSCTVELLRCLRISLLSPQVIKSLYSHQLVSSIYECITFLNNIAFLDESFPRYH | -42.7 | 3 | 1 | < 1 | 1 | 1 A55BB per Cul3NΔ22 (2:2 complex) | 2 |
